From the supplement of paper PMC10567573

B1: SPACA3 (parent)
chain: FTSGFNAAALDYEADGSTNNGIFQ

Variants of: B1
Test: protein stability index of a GFP-peptide fusion (GPS, HEK-293T) (PSI 1-6); higher = more stable
Conditions: c terminus: a fixed tail appended
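Further: lentivirally expressed fusions sorted by FACS into six bins by GFP to DsRed ratio, PSI derived from sequencing read proportions per bin multiplied by bin number.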

Row | Variant | protein stability index
1 | FTSGFNAAALHYEADGSTNNGIFQ | 2.04
2 | FTSGFNAAALTYEADGSTNNGIFQ | 2
3 | FTSGFNAAALNYEADGSTNNGIFQ | 1.57
4 | FTSGFNAAALMYEADGSTNNGIFQ | 1.98
5 | FTSGFNAAALYYEADGSTNNGIFQ | 2.66
6 | FTSGFNAAALAYEADGSTNNGIFQ | 2.16
7 | FTSGFNAAALKYEADGSTNNGIFQ | 2.43
8 | FTSGFNAAALQYEADGSTNNGIFQ | 2.01
9 | FTSGFNAAALEYEADGSTNNGIFQ | 1.79
10 | FTSGFNAAALGYEADGSTNNGIFQ | 2.46
11 | FTSGFNAAALVYEADGSTNNGIFQ | 2.6
12 | FTSGFNAAALIYEADGSTNNGIFQ | 2.27
13 | FTSGFNAAALRYEADGSTNNGIFQ | 2.2
14 | FTSGFNAAALSYEADGSTNNGIFQ | 1.5
15 | FTSGFNAAALFYEADGSTNNGIFQ | 3.1
16 | FTSGFNAAALWYEADGSTNNGIFQ | 1.4
17 | FTSGFNAAALLYEADGSTNNGIFQ | 1.93
18 | FTSGFNAAALPYEADGSTNNGIFQ | 1.84
19 | FTSGFNAAALCYEADGSTNNGIFQ | 2.03
20 | FTSGFNAAALDTEADGSTNNGIFQ | 2.41
21 | FTSGFNAAALDMEADGSTNNGIFQ | 1.83
22 | FTSGFNAAALDKEADGSTNNGIFQ | 2.04
23 | FTSGFNAAALDHEADGSTNNGIFQ | 2.04
24 | FTSGFNAAALDWEADGSTNNGIFQ | 1.39

Row | Variant | protein stability index
25 | FTSGFNAAALDCEADGSTNNGIFQ | 2.28
26 | FTSGFNAAALDVEADGSTNNGIFQ | 2.34
27 | FTSGFNAAALDNEADGSTNNGIFQ | 2.2
28 | FTSGFNAAALDEEADGSTNNGIFQ | 2.7
29 | FTSGFNAAALDDEADGSTNNGIFQ | 2.3
30 | FTSGFNAAALDGEADGSTNNGIFQ | 2.22
31 | FTSGFNAAALDSEADGSTNNGIFQ | 1.93
32 | FTSGFNAAALDIEADGSTNNGIFQ | 2.05
33 | FTSGFNAAALDPEADGSTNNGIFQ | 2.09
34 | FTSGFNAAALDFEADGSTNNGIFQ | 1.9
35 | FTSGFNAAALDAEADGSTNNGIFQ | 2.09
36 | FTSGFNAAALDQEADGSTNNGIFQ | 2.25
37 | FTSGFNAAALDLEADGSTNNGIFQ | 1.74
38 | FTSGFNAAALDREADGSTNNGIFQ | 1.78
39 | FTSGFNSAALDYEADGSTNNGIFQ | 1.92
40 | FTSGFNFAALDYEADGSTNNGIFQ | 3.08
41 | FTSGFNLAALDYEADGSTNNGIFQ | 2.88
42 | FTSGFNGAALDYEADGSTNNGIFQ | 2.13
43 | FTSGFNMAALDYEADGSTNNGIFQ | 2.14
44 | FTSGFNDAALDYEADGSTNNGIFQ | 2.62
45 | FTSGFNPAALDYEADGSTNNGIFQ | 1.82
46 | FTSGFNKAALDYEADGSTNNGIFQ | 1.83
47 | FTSGFNYAALDYEADGSTNNGIFQ | 2.31
48 | FTSGFNWAALDYEADGSTNNGIFQ | 2.39

Row | Variant | protein stability index
49 | FTSGFNEAALDYEADGSTNNGIFQ | 2.8
50 | FTSGFNHAALDYEADGSTNNGIFQ | 2.2
51 | FTSGFNNAALDYEADGSTNNGIFQ | 1.73
52 | FTSGFNQAALDYEADGSTNNGIFQ | 2.02
53 | FTSGFNVAALDYEADGSTNNGIFQ | 2.35
54 | FTSGFNIAALDYEADGSTNNGIFQ | 2.13
55 | FTSGFNRAALDYEADGSTNNGIFQ | 2
56 | FTSGFNCAALDYEADGSTNNGIFQ | 2.08
57 | FTSGFNTAALDYEADGSTNNGIFQ | 1.83
58 | FTSGTNAAALDYEADGSTNNGIFQ | 4.06
59 | FTSGPNAAALDYEADGSTNNGIFQ | 3.81
60 | FTSGWNAAALDYEADGSTNNGIFQ | 3.06
61 | FTSGLNAAALDYEADGSTNNGIFQ | 3.11
62 | FTSGVNAAALDYEADGSTNNGIFQ | 4.01
63 | FTSGKNAAALDYEADGSTNNGIFQ | 3.8
64 | FTSGGNAAALDYEADGSTNNGIFQ | 3.63
65 | FTSGNNAAALDYEADGSTNNGIFQ | 4.47
66 | FTSGSNAAALDYEADGSTNNGIFQ | 4.18
67 | FTSGYNAAALDYEADGSTNNGIFQ | 2.18
68 | FTSGINAAALDYEADGSTNNGIFQ | 3.14
69 | FTSGMNAAALDYEADGSTNNGIFQ | 3.25
70 | FTSGQNAAALDYEADGSTNNGIFQ | 4.12
71 | FTSGHNAAALDYEADGSTNNGIFQ | 3.55
72 | FTSGRNAAALDYEADGSTNNGIFQ | 3.25

Row | Variant | protein stability index
73 | FTSGFNAAALDYEQDGSTNNGIFQ | 2.1
74 | FTSGFNAAALDYENDGSTNNGIFQ | 1.72
75 | FTSGFNAAALDYEVDGSTNNGIFQ | 2.17
76 | FTSGFNAAALDYESDGSTNNGIFQ | 1.95
77 | FTSGFNAAALDYEKDGSTNNGIFQ | 2.5
78 | FTSGFNAAALDYEEDGSTNNGIFQ | 2.14
79 | FTSGFNAAALDYEIDGSTNNGIFQ | 2.05
80 | FTSGFNAAALDYEGDGSTNNGIFQ | 1.76
81 | FTSGFNAAALDYELDGSTNNGIFQ | 1.8
82 | FTSGFNAAALDYERDGSTNNGIFQ | 2.27
83 | FTSGFNAAALDYEHDGSTNNGIFQ | 2.09
84 | FTSGFNAAALDYETDGSTNNGIFQ | 1.96
85 | FTSGFNAAALDYEWDGSTNNGIFQ | 1.94
86 | FTSGFNAAALDYEPDGSTNNGIFQ | 2
87 | FTSGFNAAALDYEMDGSTNNGIFQ | 2.02
88 | FTSGFNAAALDYEYDGSTNNGIFQ | 2.09
89 | FTSGFNAAALDYEDDGSTNNGIFQ | 2.13
90 | FTSGFNAAALDYECDGSTNNGIFQ | 2.37
91 | FTSGFNAAALDYEFDGSTNNGIFQ | 2.11
92 | FTSGFNAAAMDYEADGSTNNGIFQ | 2.08
93 | FTSGFNAAAVDYEADGSTNNGIFQ | 2.33
94 | FTSGFNAAAEDYEADGSTNNGIFQ | 3.02
95 | FTSGFNAAAPDYEADGSTNNGIFQ | 2.25
96 | FTSGFNAAAIDYEADGSTNNGIFQ | 1.98

Row | Variant | protein stability index
97 | FTSGFNAAANDYEADGSTNNGIFQ | 2.08
98 | FTSGFNAAAHDYEADGSTNNGIFQ | 2.32
99 | FTSGFNAAATDYEADGSTNNGIFQ | 2.01
100 | FTSGFNAAAWDYEADGSTNNGIFQ | 1.95
101 | FTSGFNAAAFDYEADGSTNNGIFQ | 2.3
102 | FTSGFNAAACDYEADGSTNNGIFQ | 1.92
103 | FTSGFNAAAADYEADGSTNNGIFQ | 1.62
104 | FTSGFNAAAGDYEADGSTNNGIFQ | 2.38
105 | FTSGFNAAADDYEADGSTNNGIFQ | 2.47
106 | FTSGFNAAAKDYEADGSTNNGIFQ | 1.99
107 | FTSGFNAAASDYEADGSTNNGIFQ | 1.53
108 | FTSGFNAAARDYEADGSTNNGIFQ | 1.78
109 | FTSGFNAAAQDYEADGSTNNGIFQ | 2.14
110 | FTSGFNAAAYDYEADGSTNNGIFQ | 1.64
111 | FTSGFNAAALDYQADGSTNNGIFQ | 1.56
112 | FTSGFNAAALDYDADGSTNNGIFQ | 2.32
113 | FTSGFNAAALDYKADGSTNNGIFQ | 2.08
114 | FTSGFNAAALDYSADGSTNNGIFQ | 1.78
115 | FTSGFNAAALDYLADGSTNNGIFQ | 1.72
116 | FTSGFNAAALDYYADGSTNNGIFQ | 1.61
117 | FTSGFNAAALDYHADGSTNNGIFQ | 2.24
118 | FTSGFNAAALDYMADGSTNNGIFQ | 1.82
119 | FTSGFNAAALDYAADGSTNNGIFQ | 1.76
120 | FTSGFNAAALDYWADGSTNNGIFQ | 3.11

Row | Variant | protein stability index
121 | FTSGFNAAALDYVADGSTNNGIFQ | 2.08
122 | FTSGFNAAALDYGADGSTNNGIFQ | 1.44
123 | FTSGFNAAALDYIADGSTNNGIFQ | 1.36
124 | FTSGFNAAALDYTADGSTNNGIFQ | 2.21
125 | FTSGFNAAALDYFADGSTNNGIFQ | 2.46
126 | FTSGFNAAALDYNADGSTNNGIFQ | 2.09
127 | FTSGFNAAALDYPADGSTNNGIFQ | 1.55
128 | FTSGFNAAALDYCADGSTNNGIFQ | 1.87
129 | FTSGFNAAALDYRADGSTNNGIFQ | 1.66
130 | FTSGFNAAALDYEACGSTNNGIFQ | 2.27
131 | FTSGFNAAALDYEAAGSTNNGIFQ | 2.11
132 | FTSGFWAAALDYEADGSTNNGIFQ | 3.02
133 | FTSGFSAAALDYEADGSTNNGIFQ | 1.85
134 | FTSGFLAAALDYEADGSTNNGIFQ | 2.78
135 | FTSGFMAAALDYEADGSTNNGIFQ | 3.01
136 | FTSGFFAAALDYEADGSTNNGIFQ | 3.46
137 | FTSGFIAAALDYEADGSTNNGIFQ | 1.43
138 | FTSGFKAAALDYEADGSTNNGIFQ | 2.45
139 | FTSGFAAAALDYEADGSTNNGIFQ | 1.84
140 | FTSGFGAAALDYEADGSTNNGIFQ | 1.83
141 | FTSGFDAAALDYEADGSTNNGIFQ | 2.99
142 | FTSGFRAAALDYEADGSTNNGIFQ | 1.41
143 | FTSGFVAAALDYEADGSTNNGIFQ | 2.08
144 | FTSGFTAAALDYEADGSTNNGIFQ | 1.61

Row | Variant | protein stability index
145 | FTSGFPAAALDYEADGSTNNGIFQ | 1.61
146 | FTSGFHAAALDYEADGSTNNGIFQ | 2.38
147 | FTSGFEAAALDYEADGSTNNGIFQ | 2.88
148 | FTSGFQAAALDYEADGSTNNGIFQ | 1.94
149 | FTSGFYAAALDYEADGSTNNGIFQ | 2.82
150 | FTSGFCAAALDYEADGSTNNGIFQ | 3
151 | FTSGFNAACLDYEADGSTNNGIFQ | 1.83
152 | FTSGFNAADLDYEADGSTNNGIFQ | 2.42
153 | FTSGFNAAWLDYEADGSTNNGIFQ | 2.5
154 | FTSGFNAALLDYEADGSTNNGIFQ | 1.78
155 | FTSGFNAAGLDYEADGSTNNGIFQ | 2.06
156 | FTSGFNAARLDYEADGSTNNGIFQ | 1.99
157 | FTSGFNAAFLDYEADGSTNNGIFQ | 2.92
158 | FTSGFNAAPLDYEADGSTNNGIFQ | 1.86
159 | FTSGFNAASLDYEADGSTNNGIFQ | 2.5
160 | FTSGFNAAELDYEADGSTNNGIFQ | 2.46
161 | FTSGFNAANLDYEADGSTNNGIFQ | 1.82
162 | FTSGFNAAMLDYEADGSTNNGIFQ | 2.08
163 | FTSGFNAAQLDYEADGSTNNGIFQ | 2.97
164 | FTSGFNAAVLDYEADGSTNNGIFQ | 1.91
165 | FTSGFNAAKLDYEADGSTNNGIFQ | 1.62
166 | FTSGFNAAYLDYEADGSTNNGIFQ | 2.03
167 | FTSGFNAATLDYEADGSTNNGIFQ | 1.69
168 | FTSGFNAAILDYEADGSTNNGIFQ | 2.44

Row | Variant | protein stability index
169 | FTSGFNAAHLDYEADGSTNNGIFQ | 2.18
170 | FTSGFNACALDYEADGSTNNGIFQ | 1.77
171 | FTSGFNAKALDYEADGSTNNGIFQ | 2.23
172 | FTSGFNATALDYEADGSTNNGIFQ | 1.98
173 | FTSGFNASALDYEADGSTNNGIFQ | 1.99
174 | FTSGFNAIALDYEADGSTNNGIFQ | 2.34
175 | FTSGFNANALDYEADGSTNNGIFQ | 2.35
176 | FTSGFNALALDYEADGSTNNGIFQ | 1.73
177 | FTSGFNARALDYEADGSTNNGIFQ | 2.29
178 | FTSGFNAVALDYEADGSTNNGIFQ | 2.4
179 | FTSGFNAWALDYEADGSTNNGIFQ | 2.61
180 | FTSGFNAMALDYEADGSTNNGIFQ | 1.64
181 | FTSGFNAFALDYEADGSTNNGIFQ | 2.73
182 | FTSGFNAQALDYEADGSTNNGIFQ | 1.84
183 | FTSGFNAHALDYEADGSTNNGIFQ | 1.85
184 | FTSGFNAPALDYEADGSTNNGIFQ | 2.13
185 | FTSGFNAYALDYEADGSTNNGIFQ | 1.89
186 | FTSGFNAGALDYEADGSTNNGIFQ | 1.82
187 | FTSGFNADALDYEADGSTNNGIFQ | 2.98
188 | FTSGFNAEALDYEADGSTNNGIFQ | 2.35
